Literature values in paper PMC4010523.

Target: complement C5 (Homo sapiens) (UniProt P01031)

For Eculizumab, the Kd is given as 0.12 nM.
